Some results are limits rather than exact numbers.

This note sets out measurements from patent US9486536B2 (Immunomedics, Inc., priority 2013, dated 2016).

Data set [1] can be described thus: tolerability / toxicity of hRS7-P2PDox in mice. Here is the method:
Tumor size was determined by caliper measurements of length (L) and width (W) with tumor volume calculated as (L×W^2)/2. Tumors were measured and mice weighed twice a week. Mice were euthanized if their tumors reached >1 cm^3 in size, lost greater than 15% of their starting body weight, or otherwise became moribund. Statistical analysis for the tumor growth data was based on area under the curve (AUC) and survival time. Profiles of individual tumor growth were obtained through linear curve modeling. An f-test was employed to determine equality of variance between groups prior to statistical analysis of growth curves. A two-tailed t-test was used to assess statistical significance between all the various treatment groups and non-specific controls. For the saline control analysis a one-tailed t-test was used to assess significance. Survival studies were analyzed using Kaplan-Meier plots (log-rank analysis), using the Prism GraphPad Software (v4.03) software package (Advanced Graphics Software, Inc.; Encinitas, Calif.). All doses in preclinical experiments are expressed in antibody amounts. In terms of drug, 100 μg of antibody (5 mg/kg) in a 20-g mouse, for example, carries 1.4 μg-2.8 μg ([…]) of P2PDox equivalent dose when using an ADC with 3-6 drugs/IgG.
Using this dosing regimen, we examined the therapeutic effect of hRS7-P2PDox in 2 human tumor xenograft models, Capan-1 (pancreatic cancer) and NCI-N87 (gastric cancer). Therapy began 7 days after tumor transplantation in nude mice.
Conjugates were prepared and evaluated with mean drug/MAb substitution ratios (MSRs) of ˜6:1 and ˜3:1. Groups of normal mice (n=5) were administered, i.v., single doses of unmodified hRS7 or hRS7-P2PDox with drug substitution of 6.8 or 3.7 (same protein dose), and serum samples were collected at 30 min, 4 h, 24 h, 72 h, and 168 h post-injection. These were analyzed by ELISA for antibody concentration.
Anti-TROP-2 antibody conjugate, hRS7-P2PDox, was evaluated in nude mice bearing NCI-N87 human gastric cancer xenografts by administering a single bolus protein dose of 9 mg/kg, 6.75 mg/kg, 4.5 mg/kg, 2.25 mg/kg, or 1 mg/kg. The therapy was started when the mean tumor volume (mTV) was 0.256 cm^3.

Data set [2] deals with MDA-MB-468, AG S, NCI-N87 and Capan-1 solid tumor cell lines. The data set is described as follows: cytotoxicity of P2PDox-mAb conjugates to target cells. In kind it is cell-based, human. As to conditions: not shown. The text has this: The cytotoxicity of P2PDox-mAb conjugates to target cells was examined. hRS7-P2PDox and hMN-15-P2PDox were cytotoxic to MDA-MB-468, AG S, NCI-N87 and Capan-1 solid tumor cell lines (not shown). hMN-14-P2PDox was cytotoxic to Capan-1, BxPC-3 and AsPC-1 human pancreatic tumor lines and AGS, NCI-N87 and LS147T human gastric and colonic tumor lines (not shown). hLL2-P2PDOx was cytotoxic to Daudi, Raji, Ramos and JVM-3 hematopoietic tumor lines (not shown). IC50 values for the conjugates were in the nanomolar concentration range (not shown).

The nature of data set [3]: PK in normal mice, serum antibody by ELISA. It is filed as in vivo. Particulars: drug substitution 6.8 or 3.7 vs unmodified hRS7. Here is the method: These were analyzed by ELISA for antibody concentration. […] The PK parameters (Cmax, AUC, etc.) were similar.
On the technique in general: In an ELISA, binding on a coated surface is turned into a signal by an enzyme label.

In data set [4] the test system is triple-negative breast cancer. The data set is described as follows: treatment of triple-negative breast cancer patients. In kind it is in vivo, human. As to the method:
P2PDox-hRS7 ADC is prepared as described in Examples 1 and 3 above. Patients with triple-negative breast cancer who had failed at least two standard therapies receive 3 cycles of 70 mg P2PDox-hRS7 injected i.v. every 3 weeks. Objective responses are observed at this dose level of P2PDox-hRS7, with an average decrease in tumor volume of 35%, after two cycles of therapy. All serum samples evaluated for human anti-hRS7 antibody (HAHA) are negative.

Data set [5] concerns Trop-2-positive human pancreatic adenocarcinoma cell line (BxPC-3). The data set is described as follows: ADCC with PBMCs, effector to target ratio 100:1. In kind it is cell-based. Particulars: 33.3 nM. As to the method:
The ADCC activity of various hRS7-ADC conjugates was determined in comparison to hRS7 IgG (FIG. 17). PBMCs were purified from blood purchased from the Blood Center of New Jersey. A Trop-2-positive human pancreatic adenocarcinoma cell line (BxPC-3) was used as the target cell line with an effector to target ratio of 100:1. ADCC mediated by hRS7 IgG was compared to hRS7-Pro-2-PDox, hRS7-CL2A-SN-38, and the reduced and capped hRS7-NEM. All were used at 33.3 nM.

With hRS7-P2PDox, the “toxicity of the three dosage schedules” value in data set [1] (45 μg q4dx4, 90 μg weekly×2, single 180 μg (not shown)) is reported as “similarly low levels of toxicity”. Further, the “tolerability of 4 doses of 45 μg given in 2 weeks” value in data set [1] (4 doses of 45 μg in 2 weeks) is reported as “tolerated by all animals”. In addition, the MTD – broadly, the highest dose tested that stayed within the study's limit of toxicity – in data set [1] (single bolus protein dose, nude mice bearing NCI-N87) turned out to be 9 mg/kg. For the same substance, in data set [1] (single i.v. dose, antibody amount [~10 μg of P2PDox]), the “lethal single i.v. dose” value is no less than 300 µg. Also, the cytotoxicity entry in data set [2] was “cytotoxic”. Moreover, the “PK parameters (Cmax, AUC, etc.)” value in data set [3] was “similar”. Besides, in data set [3] (single i.v. dose, 30 min to 168 h), the “serum concentrations at various times” value is recorded as “no significant differences in serum concentrations”. Besides, the “average decrease in tumor volume” value in data set [4] (70 mg i.v. every 3 weeks, after two cycles of therapy) is recorded as 35%. Further, the “human anti-hRS7 antibody (HAHA) in serum samples” value in data set [4] (human, in vivo) was “negative”. Besides, the “specific lysis (ADCC)” value in data set [5] is “not significantly different”.
